Measurements: US20260275312, “CRISPR NUCLEASE POLYPEPTIDES AND GENE EDITING SYSTEMS COMPRISING SUCH” (ARBOR BIOTECHNOLOGIES, INC., published 2026)

Columns and labels:
Details in all cases: tags: N-term SV40 NLS, XTEN linker + C-term nucleoplasmin NLS
Nuclease H [1] = biological target: T1, Nuclease H (synthetic construct); test: cell_activity; HEK293T; PAM CAC 3'
T1 chain: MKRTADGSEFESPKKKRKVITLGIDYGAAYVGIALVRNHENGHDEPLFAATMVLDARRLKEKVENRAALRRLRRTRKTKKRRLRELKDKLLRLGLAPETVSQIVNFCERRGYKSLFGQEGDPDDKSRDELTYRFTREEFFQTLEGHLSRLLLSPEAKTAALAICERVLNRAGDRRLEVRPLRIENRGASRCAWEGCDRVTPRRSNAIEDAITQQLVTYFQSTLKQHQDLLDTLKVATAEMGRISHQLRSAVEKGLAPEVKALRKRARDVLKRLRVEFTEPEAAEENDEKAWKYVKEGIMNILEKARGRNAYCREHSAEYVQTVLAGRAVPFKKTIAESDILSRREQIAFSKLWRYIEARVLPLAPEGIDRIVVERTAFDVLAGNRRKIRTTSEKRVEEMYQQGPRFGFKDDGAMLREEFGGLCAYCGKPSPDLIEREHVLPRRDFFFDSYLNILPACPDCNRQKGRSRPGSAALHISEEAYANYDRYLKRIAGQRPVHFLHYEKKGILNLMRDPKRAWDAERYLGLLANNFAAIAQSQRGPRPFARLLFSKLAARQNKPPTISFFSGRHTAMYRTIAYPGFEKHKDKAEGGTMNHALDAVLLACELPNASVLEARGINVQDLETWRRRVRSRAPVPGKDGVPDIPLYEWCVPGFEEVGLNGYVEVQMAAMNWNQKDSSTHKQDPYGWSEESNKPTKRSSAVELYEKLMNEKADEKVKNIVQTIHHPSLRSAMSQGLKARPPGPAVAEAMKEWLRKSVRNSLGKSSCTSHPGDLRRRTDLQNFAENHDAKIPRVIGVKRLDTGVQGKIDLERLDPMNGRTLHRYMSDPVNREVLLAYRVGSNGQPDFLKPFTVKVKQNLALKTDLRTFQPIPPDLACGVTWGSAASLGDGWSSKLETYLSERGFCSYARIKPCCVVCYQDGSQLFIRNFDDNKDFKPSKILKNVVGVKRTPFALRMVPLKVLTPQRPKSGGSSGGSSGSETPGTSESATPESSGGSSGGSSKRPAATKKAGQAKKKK

Nuclease H T783R = biological target: T2, Nuclease H T783R (synthetic construct, T783R); test: cell_activity; HEK293T; PAM CAC
T2 chain: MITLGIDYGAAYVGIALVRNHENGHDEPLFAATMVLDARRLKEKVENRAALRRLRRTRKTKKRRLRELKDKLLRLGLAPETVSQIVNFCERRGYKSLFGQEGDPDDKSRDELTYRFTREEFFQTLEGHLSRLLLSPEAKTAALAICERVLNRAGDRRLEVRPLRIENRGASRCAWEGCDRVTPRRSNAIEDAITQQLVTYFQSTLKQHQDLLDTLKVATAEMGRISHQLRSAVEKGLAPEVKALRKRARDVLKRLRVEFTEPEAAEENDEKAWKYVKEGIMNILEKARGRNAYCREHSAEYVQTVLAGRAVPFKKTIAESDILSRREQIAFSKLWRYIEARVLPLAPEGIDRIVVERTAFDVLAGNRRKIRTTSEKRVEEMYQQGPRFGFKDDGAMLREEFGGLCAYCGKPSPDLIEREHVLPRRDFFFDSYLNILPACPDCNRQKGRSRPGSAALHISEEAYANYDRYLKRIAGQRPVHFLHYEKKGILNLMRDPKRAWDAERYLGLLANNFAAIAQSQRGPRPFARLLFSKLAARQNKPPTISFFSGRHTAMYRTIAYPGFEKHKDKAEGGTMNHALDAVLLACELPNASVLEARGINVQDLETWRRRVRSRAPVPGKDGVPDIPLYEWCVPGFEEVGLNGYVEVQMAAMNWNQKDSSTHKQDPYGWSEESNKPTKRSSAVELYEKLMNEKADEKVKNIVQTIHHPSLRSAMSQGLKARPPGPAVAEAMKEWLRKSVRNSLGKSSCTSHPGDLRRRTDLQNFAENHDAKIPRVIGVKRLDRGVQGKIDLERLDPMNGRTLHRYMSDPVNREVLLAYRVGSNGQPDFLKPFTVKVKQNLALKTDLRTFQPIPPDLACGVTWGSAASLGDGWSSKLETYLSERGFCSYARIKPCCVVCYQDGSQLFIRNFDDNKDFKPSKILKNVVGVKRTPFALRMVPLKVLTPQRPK
Method: (§1) HEK293T cells were transfected with plasmids expressing the Nuclease H polypeptides and the gRNAs provided herein following the methods provided in Example 1 above. Gene editing efficiencies were determined by NGS following the methods also provided in Example 1. The NGS results were analyzed also following the methods provided in Example 1 above.
Indel ratios, referring to the percentage of NGS reads comprising indels, were calculated for the reference and for each variant. The indel ratios used for fold change calculations were the average of two technical replicates. To then calculate fold change in indel ratios, the indel ratio for each variant was divided by the indel ratio for the reference. […] Numbering is relative to the reference nuclease of SEQ ID NO: 64 (i.e., without an NLS).

Nuclease S = biological target: T3, Nuclease S (synthetic construct); test: cell_activity; HEK293T; PAM AGCC 3'
T3 chain: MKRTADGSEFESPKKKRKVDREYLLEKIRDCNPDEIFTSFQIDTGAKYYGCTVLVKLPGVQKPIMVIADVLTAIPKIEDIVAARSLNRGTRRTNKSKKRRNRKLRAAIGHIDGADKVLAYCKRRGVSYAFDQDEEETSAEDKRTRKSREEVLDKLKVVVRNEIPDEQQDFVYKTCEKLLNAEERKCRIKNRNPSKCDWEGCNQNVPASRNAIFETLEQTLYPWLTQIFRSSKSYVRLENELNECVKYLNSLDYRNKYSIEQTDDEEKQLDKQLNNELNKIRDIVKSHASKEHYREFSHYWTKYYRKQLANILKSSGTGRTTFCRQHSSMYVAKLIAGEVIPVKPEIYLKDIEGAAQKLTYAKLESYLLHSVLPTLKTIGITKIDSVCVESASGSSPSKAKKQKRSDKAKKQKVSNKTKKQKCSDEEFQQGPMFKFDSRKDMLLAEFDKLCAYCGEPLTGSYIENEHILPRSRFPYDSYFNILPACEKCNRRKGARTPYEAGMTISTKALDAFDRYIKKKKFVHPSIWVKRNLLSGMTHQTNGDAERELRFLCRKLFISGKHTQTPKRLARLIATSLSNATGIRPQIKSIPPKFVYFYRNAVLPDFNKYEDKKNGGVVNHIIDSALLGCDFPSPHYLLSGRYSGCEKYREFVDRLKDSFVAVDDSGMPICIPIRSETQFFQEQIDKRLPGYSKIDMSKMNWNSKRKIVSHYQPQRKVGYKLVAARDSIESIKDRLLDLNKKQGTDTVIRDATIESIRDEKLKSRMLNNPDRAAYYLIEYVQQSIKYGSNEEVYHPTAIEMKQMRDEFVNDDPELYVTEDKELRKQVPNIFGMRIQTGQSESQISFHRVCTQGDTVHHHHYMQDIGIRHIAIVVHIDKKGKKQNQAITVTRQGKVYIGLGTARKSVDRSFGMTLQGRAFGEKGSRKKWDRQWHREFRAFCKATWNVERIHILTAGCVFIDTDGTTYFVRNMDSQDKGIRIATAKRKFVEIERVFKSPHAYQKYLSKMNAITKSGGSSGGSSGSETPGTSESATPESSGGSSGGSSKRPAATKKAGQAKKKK
Method: as §1, with “Nuclease S” for “Nuclease H”
Each Nuclease S variant was cloned as described in Example 6. HEK293T cells were further transfected with a plasmid encoding a Nuclease S variant and a plasmid encoding an RNA guide of Table 11, followed by NGS analysis, as described in Example 5. For each target, indel ratios, referring to the percentage of NGS reads comprising indels, were calculated for the reference Nuclease S (SEQ ID NO: 49) and for each Nuclease S variant. The indel ratios shown in Table 13 were calculated as the average of two bioreplicates, each of which contained two technical replicates.

Nuclease H [2] = biological target: T1, Nuclease H; test: cell_activity; HEK293T; PAM GAC 3'

B1: H EMX1-T5 RNA guide ; EMX1-T5 target (H) (ssRNA ; dsDNA)
RNA: GAGGCCUGGAGUCAUGGCCCGUUUCAAUCAACCUGAUCUCUCUGCUUGCGCUGCAGGCUUCAUAAGAUCAGUAGGUUGAAAAGAGCAUCCGUCCGACAUGCACUCCGGGAUGGGGCAGUCCCGGCUCUUGCGGUUCCCGAUGCAGUUAUGUGUCCGCGGAACACGGUGUCGGACACGUCGCAAGACAGGAUGUGAGCCCAUUAUCCACAUUAGGAUCAAUGUACGCAUGAGCAGUCCGCAAUGCCGGGGACGCU
DNA 1: GAGGCCTGGAGTCATGGCCC
DNA 2: GGGCCATGACTCCAGGCCTC
activity (Nuclease H [1]): 0.032 indel ratio | fold change in indel ratio vs reference (Nuclease H T783R): 4.33 fold indel vs reference

B2: S VEGFA-T4 RNA guide ; VEGFA-T4 target (S) (ssRNA ; dsDNA)
RNA: CUCUACACAAAUCUCUCCAGGUUGUAUUCGGAUGGGAGUAAAAGGUUGAGUACACCUGGAAACAAAACGACAUAAAGGUGUUCUCCCAUCUGUGUACAAAGAGCAGAUAUAUGAGUUGAUAAGUAAUAUGUUGCACGUAUGGACUUUGACAGUCUGUACCUCUGCGUGAAAGACAUAUUGCGUUAUUCAUAUAUCUGUGAGUCUGUUCUAAAUUUAAAGGUUUAGGGAA
DNA 1: CTCTACACAAATCTCTCCAG
DNA 2: CTGGAGAGATTTGTGTAGAG
activity (Nuclease S): 0.0333 indel ratio

B3: S EMX1-T4 RNA guide ; EMX1-T4 target (S) (ssRNA ; dsDNA)
RNA: AUGACUCCAGGCCUCCCCAAGUUGUAUUCGGAUGGGAGUAAAAGGUUGAGUACACCUGGAAACAAAACGACAUAAAGGUGUUCUCCCAUCUGUGUACAAAGAGCAGAUAUAUGAGUUGAUAAGUAAUAUGUUGCACGUAUGGACUUUGACAGUCUGUACCUCUGCGUGAAAGACAUAUUGCGUUAUUCAUAUAUCUGUGAGUCUGUUCUAAAUUUAAAGGUUUAGGGAA
DNA 1: ATGACTCCAGGCCTCCCCAA
DNA 2: TTGGGGAGGCCTGGAGTCAT
activity (Nuclease S): 0.0265 indel ratio

B4: H VEGFA-T6 RNA guide ; VEGFA-T6 target (H) (ssRNA ; dsDNA)
RNA: GACUCUUCAAAUCCUCCCUUGUUUCAAUCAACCUGAUCUCUCUGCUUGCGCUGCAGGCUUCAUAAGAUCAGUAGGUUGAAAAGAGCAUCCGUCCGACAUGCACUCCGGGAUGGGGCAGUCCCGGCUCUUGCGGUUCCCGAUGCAGUUAUGUGUCCGCGGAACACGGUGUCGGACACGUCGCAAGACAGGAUGUGAGCCCAUUAUCCACAUUAGGAUCAAUGUACGCAUGAGCAGUCCGCAAUGCCGGGGACGCU
DNA 1: GACTCTTCAAATCCTCCCTT
DNA 2: AAGGGAGGATTTGAAGAGTC
activity (Nuclease H [2]): 0.0378 indel ratio
